# Assay: protease stability score; higher = more stable; yeast display proteolysis, trypsin and chymotrypsin;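 also: relative to predicted unfolded state with 0 unfolded-like and 1 meaning tenfold more protease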
row,Sequence,protease stability score
1,DEETEWLERLVRVILHALDTGDEDEMNQNADPHTRVRVGDKEYHGRELFLDVFRERVHRLGIDHSNLREFDIQGDFFHLDTRLQVGDKFLEVNLIFHVINGRITIVRIDYR,1.15
2,DDWERLYLHLARLWFELILTGDEETIDKMVDPHTRLEIGDFESHGREELRYLFHHMRSHEIRIRSFDTYGDKAIIDGEIDTIINGRRMIVKIRLHVIIINGRVHSIKVEHE,1.08
3,DEEKEEWEELFKEFEHSIHTGDFRVLAKQMDPHVRIIYGEKRVHGREDAHKLMRDTLEKLGVDHMHVEDNHLQGDFIHLQIRRHVNGRTMTVHFLIWKYNGRWYMHSIKIE,1.43
4,SKDEEDAEEFFEKWLRYSRTGDEKSMEELMDPNTKIDFNGKEIHGREEVLRFLIELRVHHIEIKRISSINGKLHIDGRFDIIYGDKRIDTRTVLEIDKINGRWHLHTVRFV,2.12
5,DEDLSRNFHQFIEALKQNDTDRMKELIDPNARMRYGDKQLHGRENILNYWKKLNDQARVDLDLKSVRNDENHIRYNYKMRVHVNGRPVEDTATAEIRATNGRIVDIYIDFDPEKLRQIES,2.16
6,DEHEQFLRDIAIILIHAHLTGDWKRLEEMLDPNVRFEIDINGRSIEQHGRELYLRWVRKIHNEIWFRIEIEDISVINGRASVKVRLDLNVGDKVLHTRIHIEVVVIDGVLRSESIRVR,2.69
7,DDVEKDARWLVDELIHLLETGDEDTLLKLADPNTRIEIGDFHFHGRRDLKRILHEMRVKLDHLRIEHLDAQGEWIYIQFHYHQTINVNGRVVHEQRRVELESIKINGRWTIHFFKVK,1.28
8,SDEEKFMHEMYELILKALHTGDEEFLEHFADPNTRLHINGRERHGRDEMKEFFKKFLDHWRIERFHVRSVEIFDGRVTSDTEIRGNIDGVRSEHRTDINIVIVNGRLKEINIHIE,0.537
9,QDIDHQLERAVKEILETFITGDESLASHLFDPDVRVIQGDKHIHGREEVTKVFYEFVKRADHVEIRMREVESQGDIIDIETELILRIGDKEVRHRVRLIVVKYNGKWHIKSMEVD,2.72
10,TELEHDVIHAFNLIVWAIRTGDEKTYHRLVDPRVQIDIGDKHLHGREDFTRLLREIRVTVRDWDFEHVRFQGDYAILHSRLDIEINIDGRIERIDVHQILFVEKINGRWRHTRESRH,0.366
11,TEEHELFEKLARLIIKWLHTGDEERINEYADPNYRTHIGDKTVIGREEREKLIRWLLEHMRIDHIELKDIRVINGKVEIDGKIHGQINGQEVTRHSIIYLIFVDGVIKHISIEWR,1.35
12,DEIEEIAREIAKELHHLILTGDEDRLNELMDPNVKFESIVNGRRIESIGRENVKEVLRRLLEKLGLDRFSFIRRDIKYFDGVIHIFGQLEIDGVRHETEIIIFIVNGKVKSIRIRIQ,1.14
13,IEQKEAWDEVYRIFVEAVRTGDWKSFERLLDPHTRIHFENREFHGREALEHDREKYKNMKLEHIEIKDQRVQGDKVIQFSHVVGNIDGRRLRFDIEIQFSKVDGVWTIELVIVR,1.52
14,DLDQELREKTIRIELKAWRTGDEDKIKELLDPNTRFIINGRHLIGREAIHILLEQIDHFKDLQPRHVDVINGVVRFDGHMEGTFNGVDQSTKVHIIAWKYNGRWFIESIIII,1.59
15,SEDHELRKHLADRTYKWLATGNFEELMKLMDPNTRFTIGEFNDHGRKAIEWLWRELGVDHFHFREIRVQGDKIHMDTEFEFNGVKVRTHFRVIVIDGRVTSVIILTE,1.34
16,SDDEEDVWRMAEIILKLFYTGDEEKFRNLADPNVRLNFNGRNFIGRENLEKHLRELRIHRIELREMDLKVINGRAEVRVRGFVDGEIDGQRYHSEVRLIMIITKVDGRWIIESIEFEQL,2.59
17,NELEDRFDYAMKLWIDILRTGDEHQFEEMADPNVRIIDGDKHNVGREILYFLLWKFGFDNFEFRLHDFKIQGEKIHIDGHFRVDGQTHRVHFVVLKIDGRWLVESVERK,2.01
18,DEEHELTRKVLTEMWEIFMTGDWKRWHELLDPHVRFVYVQGEFEDVHHGREEVKRLFDKLLKDLGFKHSELTDTRLVGNKAVIDGTIHVGDKIYDFHLNVLVVNGKVKTIEVEIREK,1.94
19,DEDEKLLEKIAREFFEALKTGDEDWLTELADPHVKLDVGEWDTHGMEEIKNVLKILLHELGFKHRELHDMDIVNGVNVIDVIIRINGKERKVTIIIVTIDGRIKSIHHRVN,2.15
20,DEEEKEVHKFMDLLVRALETGDEDEFLSLVDPNARVEIGDKLLHGRESEHWLTEHIKKVAGVERFTHHIHLKDWTIFNGRVRVDGILHLDYGNFHVERRSDFIIYKVDGRWIMRSERVH,0.185
21,DELEEFLHTIMELVVRNMFTGDEDSFNNLADPDVKSHINGKNAVGREEIIRVWKEWVEEIRTTHYDIHDFTIIGDKAHSDTRVDGTFNGVRDTIDTRVIVLVVDGRLKSLEIRMH,0.986
22,SEETEETERVEREISHARLTGDEQFLKEMLDPNTRLLINGVILVGREALEHFVREMRVERVEVKDVRVQGDKLHIDTTSDVHYNGRRWTIKTHLIMVKVDGRWLMESVEFK,1.62
23,DERTEFLERMSEHLTHVWHTGNEELWNRLADPRARFIEFVDGKKNHHHGMEVASNRIKKWRKDLGIDHVRLKEERVQGNKVELHLQVDINGVEQTVEIYNSIVDGRFESLEVNIHTR,0.074
24,DEEKKVAMELAILLFHLWLTGDEETERRLADPDTRMDVDGKDIIGREELSKVWERILKEMRFDRWEVDRVDVVNGQVHLHGHIRGKYNGKEETREIEITINIVNGRLKSVHFNLR,1.87
25,SEHSHFLVELALIFWKALVTGDEERLDRLIDPNTRLEIGDKEEIGRENIIRKLDHIRIKTEEITVRDYRTQGDKFHMIGHVDLHFDFNGVRHRFTTEVRVDLTTVDGKIHSHHIKYR,0.145

row,Sequence,protease stability score
1,DDDQKEMERFVREFVHSFMTGDEENIRRLADPNARTYVNGKLRHGMDNFLHLWRQIRIDIQHVKVDDMHLVNGRIYIRVTVHGIFTFDGVHVRDEKDQHWELHVVDGRAKYISIHVH,1.62
2,DEEEERARRDLFIWAHAVKTGDEKRYKELFDPNDKLDINGQEIHGMESVVKLIRHIRIEDIHLHLHDIRLIGDKLHVDGQIRQHTHVGDKRVHDTINVNDIVHKVNGQWHWKSIIYH,1.03
3,DHQEEEAKEFTELLMRNLFTGDEDSLQEMLDPHVRIEVDIGDKHRHHHGREEISHFLVRLQHELGVDHIRLSHIEVFNGRAEVHIESYIGNKRSENVFVVTKFNGVWRVQRIIIRVE,1.2
4,NEINRHLHEAFKKLINVMMTGDEEESTELLDPNARINFNGKDFWGWNELRKSMHEARIHHIQITSVRYIGDKIIIHGTVDGEFDGQRKEVEMEIFSRKFNGQWFFESIIIR,1.28
5,DETEELFEEIVKIFIEAMETGDWRLLKRMVDPHVRSIQGDFHLHGRESMLELWLHIRIDRITLTDARVRIQGEKVHVDLRVKTNGIINGRRKDTQTHVHLHLDKVNGVWSITITNIIFE,0.553
6,HEEEEHIWRMFKLFIHYLLTGDPDMLARYADPNVRLDINGQEWHGREEMFEMLKIFFDELRIKHFHLRRWRVVDGVAHVDVETHGNYNGREETRKVHIHVVIFNGRMKELVIKIS,2.66
7,DEREKREEEVLKIIIEITETGDWRIFMELADPHVKLDIGDKDMHGMEEAERLWELMHKLLGINHIRFRHLRIQGDKVDMEFNVTIGDKQVDTRRHVITVDGRLHEVHEEFK,0.399
8,SEENEVIHRVIYYWIRAMKTGDEHLVSRLFDPNARHEIDGVDHVGWEEILKFFRRFDHLHHFHVNHIESHGDKIILDGRVDGEVNGQHLRFHVEIISLKVNGRWINQSEHVH,1.81
9,SEDEKQLEHAVKLFIESLRTGDEHSLENLVDPNVRMQINGVELHGRELFIHLFREWRFHSVHLRHLDLQGDKVHLDGKLDVRFDGRRYEVILRTHIEKIDGRWHLRYMYEE,1.45
10,DEDEEKKDEARRLWEENLMTGDEETLFRLADPHVRTVINGVEFHGREEMLKAIRWLRHDLGAKHIDSIHIDSVTIQGDFVIVHGHLRFSIGDKRTDSEVHLHVLKVDGKWYVHEVNIN,-0.183
11,SEHDEELRHASEKLWHDILTGDWKSIKELADPNVRVIIWQGEKEINLHGREEVTRVIKEMGFKHTHIEHQSTINGRMIVDNHSNINGKRVHLHFVIEKINGRWFLHEMRIEFE,1.47
12,DEDEHYAREAVHLVYEILHTGDEHELMKYADPDTRIDIGDKTHIGRDRVVEAIHKMHKKLGVDHEVLTDSKVHWQGNKIEIYLKIEIHVGDKRFEMDIIIHLEKINGRWRVKSMRIDFR,1.33
13,SEEEKEAKDALEKLWHYWHTGDEHELVRLADPTMRHIINGRHFHGREFFSELLRRLGFKHIIYHFEDMDVQGDKVHIHGHIESEFDGRRHHMNTHLIILKVNGKWIYESIKFD,1.32
14,SEDKKATNEASEIIIRLLKTGDEHLANHYIDPNVRMIFENRDVHGRETFEEWMRRVDHFHHYDVRHVHTQGDKINIDSEHNIHINGQEEIKDVYWISTKIDGKWILKSIEVR,1.28
15,DNKEKLMNKAFEWILELIITGDEDTLHELADPNARNHYGEFHHVGREETTRFLVEFNRRLGVDHVRFERMRVIDGKVHLHIEINVDGRRFESDLIFFKVDGRWKLNFVHFRHV,1.27
16,EEWRDHVHHLLELMLHLWRTGDEEIFHRLLDPDTLVRVNGVEFHGRDAMHHVLHRLIEELGINHYRESDFDIQGNKAFHHGELRVNGKTVLEEQRYVIFNGKIKEIRITLH,0.271
17,DEDEEAAEKMTELFRKSIKTGDEDLLTRLIDPHVRVDVNGRDIHGRESYFHELRNLGITNVEMQLKSRDVIGDKVHIDGTNRFNGRNHKVIIIVLKFNGRWVIEEIRIH,-0.045
18,DEEEELARRASRKLIELMLTGDEDSLEEMLDPNVKVQIGDKELHGRIAIEIMSRQFKNVRIEVKRLSVQGNYVDLDVRVNINGVWVEQRIQIEKVDGRWTLKENTIV,2.23
19,DEEEKVIKDVVDMLRKALRTGDEERIRELADPDVRIEQGDKELHGRELWLEWLKEIRTERVILHVRRVRHFNGKIINEIEVRMDVRVGEFRHESTVSTILIMEKFNGRWHIRSMIIE,1.5
20,DDLEQESHKVFEQYVRDWRTGDEHNVERLADPHVRVLYNGRHSHGWKEFLEHFSRDAQQADHTEFRIDDTDHQGDKMVLNETVILRYGDKEIQIEVELIYRKIDGRWYITEVRFR,0.204
21,TEDEELIERYVRFFLKIMETGDEKLTERMMDPDARFEIGDKEEHGREAIYEWLSKIKNIRIKIHHIKIQGDKLHLDVRFHINGKEIEVEIVSKKIDGKWMVHSVIVK,1.5
22,DEDEELALKMLEQWLRDLLTGDEETMVDLLDPNARLEIGDKENHGRDEVRKFWEELKKRFKNVRMEIEVHEIRVIGNKVHSINTLIIIIGDKRIKHHIHVHVVIFNGRVHSVHISIH,1.35
23,SEVQETIDHLVREVLHDFRTGDERRLEENMDPNAKSIFDGRESHGREKVSKMIHDFLEEMGFKHMELKEREVVGNKVEIHGRVIIGDKEFELHLHSQKIDGRWVLDSIRIE,0.52
24,SEEEDFMRQVYHWFLELWLTGDEDIFKKLADPDTLLDWNGVQSVGMEEFHRLLHEMEERLGVKHKEYKRFRIQGNKVHLDLVHEFNGRRIKTEIVVVVVNGRFKEIRIRHH,1.79
25,SEEEEDARRMMEILIKTLKTGDWRTIRRLVDPNVRVDFNGVDDHGRENWLKHVLHIRFKRIYIRDVRVYDGRVHIHGEINIEFDGRSDHYEVEIHIDKVDGRWVITHILIV,2.26

# Source: the NTF2 design screens of Basanta et al. (2020)
